Test results as given in FireProtDB (doi:10.1016/j.bpc.2007.12.006).
Values joined by “and” are separate entries in the source; they are usually repeats but may differ in a detail not shown here. Equal values may be shown once.

Settings: CD, reversible: Yes, whole UniProt chain shown; for unfolding free energy: 25 °C; for heat capacity change of unfolding: Thermal

B1: Guanyl-specific ribonuclease T1 wild type, P00651 (protein)
chain: MMYSKLLTLTTLLLPTALALPSLVERACDYTCGSNCYSSSDVSTAQAAGYQLHEDGETVGSNSYPHKYNNYEGFDFSVSSPYYEWPILSSGDVYSGGSPGADRVVFNENNQLAGVITHTGASGNNFVECT
- unfolding free energy (Aspergillus oryzae (strain ATCC 42149 / RIB 40), pH 2.2, GdnHCl, Glycine-HCl 0.1 M, KCl 0.1 M): 2.72 kcal/mol
- unfolding free energy (Aspergillus oryzae (strain ATCC 42149 / RIB 40), pH 2.2, Urea, Glycine-HCl 0.1 M, KCl 0.1 M): 2.77 kcal/mol
- heat capacity change of unfolding (Aspergillus oryzae (strain ATCC 42149 / RIB 40), pH 2.2, Glycine-HCl 0.1 M, KCl 0.1 M): 2.5 kcal/mol/K and 2.65 kcal/mol/K

B2: Alpha-lactalbumin wild type, P00711 (protein)
chain: MMSFVSLLLVGILFHATQAEQLTKCEVFRELKDLKGYGGVSLPEWVCTTFHTSGYDTQAIVQNNDSTEYGLFQINNKIWCKDDQNPHSSNICNISCDKFLDDDLTDDIMCVKKILDKVGINYWLAHKALCSEKLDQWLCEKL
- unfolding free energy (Bos taurus, pH 7, GdnHCl, Cacodylic acid 0.05 M, NaCl 0.1 M): 2.41 kcal/mol
- unfolding free energy (Bos taurus, pH 7, Urea, Cacodylic acid 0.05 M, NaCl 0.1 M): 2.35 kcal/mol
- heat capacity change of unfolding (Bos taurus, pH 7, Cacodylic acid 0.05 M, NaCl 0.1 M): 2.15 kcal/mol/K and 2 kcal/mol/K
